According to patent US20090214428A1:

Target: HeV G envelope glycoprotein (on effector cells expressing HeV F and G, or on infectious HeV) (Hendra virus) (UniProt O89343)
Assay: cell-based or functional assay

Chain of HeV G envelope glycoprotein (on effector cells expressing HeV F and G, or on infectious HeV) (Hendra virus) (O89343 whole entry): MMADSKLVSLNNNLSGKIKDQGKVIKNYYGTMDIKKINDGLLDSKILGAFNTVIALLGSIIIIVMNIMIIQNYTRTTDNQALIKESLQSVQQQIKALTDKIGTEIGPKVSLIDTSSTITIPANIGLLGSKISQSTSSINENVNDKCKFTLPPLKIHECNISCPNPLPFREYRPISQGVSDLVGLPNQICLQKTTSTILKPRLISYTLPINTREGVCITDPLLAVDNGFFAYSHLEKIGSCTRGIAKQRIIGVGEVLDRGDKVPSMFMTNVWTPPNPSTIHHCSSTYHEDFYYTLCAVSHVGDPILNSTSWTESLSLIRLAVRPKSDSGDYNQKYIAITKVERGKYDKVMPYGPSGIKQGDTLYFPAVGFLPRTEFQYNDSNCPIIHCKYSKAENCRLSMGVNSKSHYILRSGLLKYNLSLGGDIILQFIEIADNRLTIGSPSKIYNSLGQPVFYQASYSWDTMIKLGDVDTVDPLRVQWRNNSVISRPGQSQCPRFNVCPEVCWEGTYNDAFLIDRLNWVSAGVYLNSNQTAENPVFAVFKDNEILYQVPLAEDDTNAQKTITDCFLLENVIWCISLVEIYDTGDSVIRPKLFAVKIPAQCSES

Fab X5 was tested, and the syncytia per complete photograph view, control antibody (17 without antibody) (syncytia per view) was 20.
